From patent publication US20140242093A1, “METHODS AND COMPOSITIONS FOR MODULATING THE INNATE IMMUNE RESPONSE AND/OR MYOGENESIS IN A MAMMALIAN SUBJECT” (FRED HUTCHINSON CANCER RESEARCH CENTER, priority 2011, published 2014)

System: control human primary myoblasts
Assay: Expression microarray of primary myoblasts transduced with lentivirus carrying DUX4-fl, DUX4-s or GFP
Method: Primary human myoblasts were collected and cultured as previously described (Snider et al., 2010). Primary myoblasts were maintained at or below 70% confluency for proliferation. For differentiation, cells were allowed to reach 95-100% confluency in growth medium. Once confluency was reached, the cells were changed to differentiation medium (F10 media supplemented with 1% horse serum, 10 μg/mL insulin, and 10 μg/mL transferrin, penicillin/streptomycin) and maintained for 4 days. Human RD cells were grown in DMEM in 10% bovine calf serum (Hyclone) and penicillin/streptomycin. The primary myoblasts were transduced with lentivirus carrying DUX-fl, DUX4- or GFP (MOI=15).
Expression microarrays were performed on the transduced cells at 24 hours after transduction as follows. […] Samples were analyzed by Illumina Human Whole Genome microarrays. Probe intensities were corrected, normalized, and summarized by the Lumi package of Bioconductor (Du et al., 2008). Differentially expressed genes were identified by the LIMMA package of Bioconductor (Wettenhall and Smyth, 2004). Gene set enrichment analysis (GSEA) was performed using the Bioconductor GOstats package (Falcon and Gentleman, 2007).

B1: DUX4-s: short splice form of DUX4 (SEQ ID NO:112), keeps the double-homeobox domains, lacks the C-terminal activation domain (protein, listed as Homo sapiens)
chain: MALPTPSDSTLPAEARGRGRRRRLVWTPSQSEALRACFERNPYPGIATRERLAQAIGIPEPRVQIWFQNERSRQLRQHRRESRPWPGRRGPPEGRRKRTAVTGSQTALLLRAFEKDRFPGIAAREELARETGLPESRIQIWFQNRRARHPGQGGRAPAQV
IFITM3 expression fc (Refseq NM_021034.2, cultured human skeletal muscle): −0.1274
NEFH expression fc (Refseq NM_021076.2): 0.09952
fc of SLC8A1 (expression array) (Refseq NM_021097.2): 1.046
PSAT1 fc (Refseq NM_021154.3): 0.7365
RAB40C fc (Refseq NM_021168.2): −0.07138
fc of SLC30A1 (expression array) (Refseq NM_021194.2): 1.236
CTDSP1 fc (Refseq NM_021198.1): 0.04155
ARHGAP22 fc (Refseq NM_021226.2): 0.07773
fc of NTN4 (expression array) (Refseq NM_021229.3): 0.03724
PELI2 expression fc (Refseq NM_021255.2): −0.3732
PLEKHA2 fc (Refseq NM_021623.1): 0.062
AVPI1 expression fc (Refseq NM_021732.1): 0.1884
fc of FAM3A (expression array) (Refseq NM_021806.1): −0.1833
APOBEC3G expression fc (Refseq NM_021822.1, cultured human skeletal muscle): 1.408
fc of C14orf93 (expression array) (Refseq NM_021944.1): −0.1073
HSPA2 expression fc (Refseq NM_021979.3): −0.2546
CXCL16 fc (Refseq NM_022059.1): 1.184
NOD2 fc (Refseq NM_022162.1): 0.4347
IFIH1 expression fc (Refseq NM_022168.2, cultured human skeletal muscle): 1.659
HS1BP3 fc (Refseq NM_022460.3): 0.05143
C14orf173 fc (Refseq NM_022489.2): −0.2714
FEZ1 fc (Refseq NM_022549.2): 0.19
HIPK2 fc (Refseq NM_022740.2): 0.3559
fc of MOSC1 (expression array) (Refseq NM_022746.2): −0.1084
PARP12 expression fc (Refseq NM_022750.2, cultured human skeletal muscle): 0.7767
CRTC3 fc (Refseq NM_022769.3): −0.1184
FAM129B fc (Refseq NM_022833.2): 0.4382
IFI6 expression fc (Refseq NM_022872.2, cultured human skeletal muscle): −0.03611
FGFR3 expression fc (Refseq NM_022965.1): 0.04147
PRAMEF1 expression fc (Refseq NM_023013.1): 0.0691
PRAMEF2 expression fc (Refseq NM_023014.1): −0.04937
C8orf33 expression fc (Refseq NM_023080.1): −0.06075
GRAMD3 fc (Refseq NM_023927.1): 0.3772
NEUROG2 expression fc (Refseq NM_024019.2): −0.004473
NUP37 fc (Refseq NM_024057.2): −0.1339
PRRG4 expression fc (Refseq NM_024081.4): 0.2096
TRIM48 expression fc (Refseq NM_024114.2): −0.07954
DHX58 expression fc (Refseq NM_024119.2, cultured human skeletal muscle): 0.6965
PRKAG2 fc (Refseq NM_024429.1): 0.7547
fc of FAM65A (expression array) (Refseq NM_024519.2): −0.1263
fc of ZC3HAV1 (expression array) (Refseq NM_024625.3): 1.471
YRDC expression fc (Refseq NM_024640.3): 0.000579
NPEPL1 fc (Refseq NM_024663.3): −0.2631
SNIP1 expression fc (Refseq NM_024700.2): −0.174
fc of FAM57A (expression array) (Refseq NM_024792.1): −0.003135
C13orf34 expression fc (Refseq NM_024808.2): −0.002127
fc of NUDT18 (expression array) (Refseq NM_024815.3): 0.1692
fc of ZNF672 (expression array) (Refseq NM_024836.1): −0.1481
C14orf159 expression fc (Refseq NM_024952.5, cultured human skeletal muscle): 0.5194
NRSN2 fc (Refseq NM_024958.1): 0.06807
SLC24A6 fc (Refseq NM_024959.2): 0.0001018
CSRNP3 expression fc (Refseq NM_024969.2): −0.07941
fc of ULBP1 (expression array) (Refseq NM_025218.2): 0.6193
C6orf148 expression fc (Refseq NM_030568.2): −0.1046
KLHL15 expression fc (Refseq NM_030624.1): 0.7742
fc of ZBP1 (expression array) (Refseq NM_030776.1): 1.187
SLC2A10 fc (Refseq NM_030777.3): −0.3197
SYNC1 fc (Refseq NM_030786.1): −0.2508
PDRG1 expression fc (Refseq NM_030815.2): 0.0622
UNC93B1 expression fc (Refseq NM_030930.2, cultured human skeletal muscle): 0.9411
PPP1R14C expression fc (Refseq NM_030949.2): −0.01369
TRIM56 fc (Refseq NM_030961.1): 0.3086
fc of RNF146 (expression array) (Refseq NM_030963.2): 0.1463
ADPGK expression fc (Refseq NM_031284.3): 0.09196
C11orf68 fc (Refseq NM_031450.2): 0.3616
FAM107B expression fc (Refseq NM_031453.2): −0.1841
PARP9 expression fc (Refseq NM_031458.1, cultured human skeletal muscle): 0.4426
IFI27L2 fc (Refseq NM_032036.2): −0.02949
SFRS2B expression fc (Refseq NM_032102.2): −0.3335
fc of ATRIP (expression array) (Refseq NM_032166.2): 0.002138
CEP78 expression fc (Refseq NM_032171.1): −0.1396
SON expression fc (Refseq NM_032195.1): −0.2838
LARP1B expression fc (Refseq NM_032239.2): −0.2602
MED10 expression fc (Refseq NM_032286.2): 0.5994
C1orf57 fc (Refseq NM_032324.1): 0.3544
ELOF1 expression fc (Refseq NM_032377.3): −0.3008
fc of C15orf48 (expression array) (Refseq NM_032413.2): 1.653
PKIB expression fc (Refseq NM_032471.4): −0.1719
KBTBD8 expression fc (Refseq NM_032505.1): 0.01077
TMEM185A expression fc (Refseq NM_032508.1): 0.2327
PARD6G fc (Refseq NM_032510.3): −0.01049
fc of EBPL (expression array) (Refseq NM_032565.2): −0.0901
fc of ACCS (expression array) (Refseq NM_032592.3): −0.1557
RBBP6 expression fc (Refseq NM_032626.5): −0.1339
SPRYD5 expression fc (Refseq NM_032681.1): −0.07702
fc of SPPL2A (expression array) (Refseq NM_032802.3): 1.124
ATOH8 expression fc (Refseq NM_032827.4, cultured human skeletal muscle): −0.2886
CORO6 fc (Refseq NM_032854.2): −0.3004
fc of TIGD5 (expression array) (Refseq NM_032862.2): −0.2163
CASP6 expression fc (Refseq NM_032992.2): 0.2336
TRIM5 fc (Refseq NM_033034.1): 0.5003
EPSTI1 expression fc (Refseq NM_033255.2, cultured human skeletal muscle): 0.6618
TP53INP1 fc (Refseq NM_033285.2): −0.5734
CASP1 fc (Refseq NM_033294.2): 2.171
PRIC285 expression fc (Refseq NM_033405.2, cultured human skeletal muscle): 0.8634
ZNF622 expression fc (Refseq NM_033414.2): 0.01403
PANX2 expression fc (Refseq NM_052839.2): 0.2001
fc of C20orf72 (expression array) (Refseq NM_052865.2): −0.05254
fc of GBP5 (expression array) (Refseq NM_052942.2): 1.314
fc of ALPK2 (expression array) (Refseq NM_052947.3): −1.08
fc of ANTXR1 (expression array) (Refseq NM_053034.1): 0.3595
AP1S1 fc (Refseq NM_057089.2): −0.1404
CCNE1 expression fc (Refseq NM_057182.1): −0.1277
FBXO32 fc (Refseq NM_058229.2): 0.7666
CCNT2 expression fc (Refseq NM_058241.1): −0.3221
SLC44A1 fc (Refseq NM_080546.3): 0.7801
fc of C2orf28 (expression array) (Refseq NM_080592.2): −0.07859
DYNLL2 expression fc (Refseq NM_080677.1): 0.6521
HOM-TES-103 fc (Refseq NM_080731.1): −0.3166
ZNF280A expression fc (Refseq NM_080740.3): 0.05889
C20orf127 expression fc (Refseq NM_080757.1, cultured human skeletal muscle): 0.4401
fc of PTPRA (expression array) (Refseq NM_080841.2): 0.04113
ASB5 fc (Refseq NM_080874.2): −0.4567
APBB3 expression fc (Refseq NM_133172.2, cultured human skeletal muscle): 0.03992
fc of DIS3L (expression array) (Refseq NM_133375.2): −0.2728
C6orf117 expression fc (Refseq NM_138409.1): −0.06998
fc of SDSL (expression array) (Refseq NM_138432.2): −0.09243
TRIM43 expression fc (Refseq NM_138800.1): 0.02385
CMBL expression fc (Refseq NM_138809.3, cultured human skeletal muscle): 0.06858
fc of FGD4 (expression array) (Refseq NM_139241.1): 1.214
ANGPTL4 fc (Refseq NM_139314.1): 1.267
MBD3L2 expression fc (Refseq NM_144614.2): 0.02684
JSRP1 fc (Refseq NM_144616.2): −0.4661
fc of PPM1M (expression array) (Refseq NM_144641.1): −0.2381
fc of C1orf58 (expression array) (Refseq NM_144695.2): 1.054
FXYD5 fc (Refseq NM_144779.1): 0.09461
Cllorf82 expression fc (Refseq NM_145018.2): −0.2738
CDC42EP5 fc (Refseq NM_145057.2): 0.1387
SPATA18 expression fc (Refseq NM_145263.2, cultured human skeletal muscle): −0.214
MOBKL2C fc (Refseq NM_145279.4): 0.1274
ZNF296 expression fc (Refseq NM_145288.1): 0.1758
fc of MGST1 (expression array) (Refseq NM_145792.1): 0.2271
OSBPL7 fc (Refseq NM_145798.2): −0.3669
TP53I3 expression fc (Refseq NM_147184.1, cultured human skeletal muscle): 0.192
fc of GJD3 (expression array) (Refseq NM_152219.3): 0.8646
ACPL2 fc (Refseq NM_152282.3): 0.1468
fc of C1orf131 (expression array) (Refseq NM_152379.2): −0.08789
fc of PPM1K (expression array) (Refseq NM_152542.2): 1.44
C12orf50 expression fc (Refseq NM_152589.1): −0.02137
